The supplement of paper PMC12042874
± gives the uncertainty stated by the source.

Test: amyloid nucleation score (Sup35N fusion, yeast selection) (log enrichment); library NNK1; higher = more nucleation; inactive = no reads after selection
Procedure, shortened: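 The nucleation score is the log enrichment of output over input reads, calculated with DiMSum and centred on the mode score of non-aggregating sequences. Sequences with under 100 input reads were excluded. Reads came from Illumina sequencing of plasmid inserts from psi-negative yeast expressing Sup35N fused to peptides of 20 random codons, induced 24 hours with 100 μM copper sulfate and grown 7 days at 30°C without adenine and uracil.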

Substance	amyloid nucleation score
RGISYLV	-0.212 ± 0.68
RGLVFEGKLAFTVATVVFFW	-1.19 ± 1.4
RGRRDAGGYRSKSFLGAWGV	0.837 ± 0.21
RGTGLICCTNVCGRTWKGHN	7.406 ± 0.047
RHALIYMVQVAQAGWGGLEV	-0.767 ± 0.78
RHMRFPWLKAHVIFIMQWQR	1.16 ± 0.54
RHRVQTTPSSMSFV	-0.388 ± 0.96
RHSLIFDRTGRGYGARVPVE	inactive
RHSSYIGMCRT	1.66 ± 0.56
RHTETSLASSARKPALNPT	0.197 ± 0.41
RHVYW	0.551 ± 0.39
RIAFFS	1.25 ± 0.57
RIAVWSSGSYCMYYTCWCNH	-0.191 ± 0.24
RIDARILLITCL	-1.51 ± 2.4
RIDCYW	-0.858 ± 1.1
RIDQNICGIVNMVFR	6.311 ± 0.047
RIGFPSQSGLLVVAVLTQSA	-0.379 ± 0.43
RILKMYTYVLTMADHVLNKS	0.21 ± 0.2
RIMYSRLDYWLAYPVISERG	-0.057 ± 1.4
RINQVTGVVQLVFRCRNSRL	7.643 ± 0.047
RINSGHIK	0.247 ± 0.33
RIPRFLNSLSEYYYLDFHYG	1.15 ± 0.23

Substance	amyloid nucleation score
RISLRYGQRC	0.356 ± 0.28
RISSVT	0.17 ± 0.86
RITAVRGVCLFSADSV	-0.175 ± 0.26
RIVEGWDTLSFLFRKGCEFF	1.2 ± 0.56
RKAIFTSFSQ	inactive
RKCEDGFWGKRDSATKGP	0.034 ± 0.29
RKCLESTTRSFLAVRS	3.3 ± 0.097
RKDVLEGADSMTMVRRSSLF	-0.286 ± 0.35
RKFRNKAIISIIDVYRPAAI	1.01 ± 0.62
RKIVYVYEDVVRLNTCRISS	0.034 ± 0.93
RKRPTGTHAVDVSRGFT	1.27 ± 0.71
RKTNLGWHSICRA	-0.435 ± 0.28
RLAQYHMYIKFETGYN	1.23 ± 0.36
RLAVKDNVCKLDMMSGCCLS	5.45 ± 0.059
RLCPENLRTNFKCVLNFMVT	4.81 ± 0.12
RLCPSCLVKWMTLWFVWIVR	0.769 ± 0.41
RLCVVRDRFIGPIRRAFLHP	inactive
RLDSPDVVSAFCEAALASAS	0.136 ± 0.76
RLEADYLTVIESVGHSATGS	inactive
RLFLVEFIWNMR	0.958 ± 0.71
RLFYTRSDSGGVRLVVLAVG	0.003 ± 1.2
RLGHDRIFSIRNSQS	-0.287 ± 0.58

Substance	amyloid nucleation score
RLIFEVFYLTFRVLT	-0.457 ± 0.39
RLLCCFCTWTLQMFCYSGCC	5.981 ± 0.053
RLLFLFVHVSYGI	0.014 ± 0.47
RLLPYILMTFLHEYVGAGYE	0.561 ± 0.37
RLMNFE	-0.257 ± 0.43
RLQSKLLHCS	-0.169 ± 0.45
RLSLETIVASFIYCCCAKFA	1.66 ± 0.5
RLSVVDELLCVLILGFRCYT	0.372 ± 1.4
RLVESRLCASCVDGG	-0.166 ± 0.46
RLVLNCRYNYCSREFVFYAV	0.292 ± 0.35
RLVNPRDCKFNDTRTFCSRR	0.118 ± 0.52
RLVTYPSVLSSVSEGSGRGG	1.05 ± 0.66
RLYLNDNTLSCF	-0.001 ± 0.22
RMFVGWHSLERIL	1.21 ± 0.43
RMMSVGALGQG	0.323 ± 0.76
RMRATLDLSFWFGKEQYARV	0.389 ± 0.45
RMYIHMYS	1.32 ± 0.33
RMYYT	-1.52 ± 0.82
RNFLNAYW	-0.307 ± 0.85
RNGLALRLTNTTRSTYLSRQ	-0.166 ± 1.1
RNIWNLVLDKNAHMNCFMTH	0.087 ± 0.46
RNNSVLLLSSYANKRYSPAW	-0.439 ± 0.78

Substance	amyloid nucleation score
RNQFDYDRWYVMRSHYRVIC	-0.526 ± 0.58
RNQRSSMWVGNRCYGGRCVW	0.898 ± 0.93
RNTVGYVSNTGVLYILTS	6.24 ± 0.067
RNWCIMFLTYVL	3.74 ± 0.083
RPAKLMAMPKILIGPH	0.131 ± 0.26
RPNMVNVKNSRRFSL	0.257 ± 0.48
RQAFIRGGLEAAKGAYHVLG	-1.38 ± 2.4
RQPANEELPFSVTGK	-0.892 ± 0.65
RQTLEKF	-0.168 ± 0.28
RQVRMGFPGFWFMVIDYCRS	0.499 ± 0.39
RRCMLLYCGLGAGALGSDGR	-0.539 ± 1.1
RRCSEM	0.853 ± 0.4
RRENIP	0.01 ± 0.42
RRFEWFAGHCGIVDLPLGVG	0.568 ± 0.97
RRGAKRSLWLIRNLWWDKSK	inactive
RRHAHLWLYLGNLGCWLEEV	-0.139 ± 0.38
RRLHMLVNHLKCAGATRGGR	-0.172 ± 0.34
RRLPA	-0.091 ± 0.9
RRLTRIIKAKL	0.018 ± 0.78
RRLYSKKILRDWLASSFSTD	inactive
RRMKFDMSNGRQGSLVNHGR	0.214 ± 0.53
